We go through 9 molecules from patent US20240043552A1 (Eli Lilly, published 2024).

Numbering of substitutions follows the chain as printed. Names may count otherwise.

Sequences and labels used below:
B1: MetMAb × BHA10 IgG BsAb, CH1/Cκ design 14.3.1.2 (bispecific antibody)
heavy 1: EVQLVESGGGLVQPGGSLRLSCAASGYTFTSYWLHWVRKAPGKGLEWVGMIDPSNSDTRFNPEFKDRFTISADTSKNTAYLQMNSLRAEDTAVYYCATYRSYVTPLDYWGQGTLVTVSSASTKGPSVFPLAPSSKSTSGGTAALGCLVADYFPEPVTVSWNSGALTSGVHTFPAVLQSSGLYSLGSVVTVPSSSLGTQTYICNVNHKPSNTKVDKKVEPKSCDKTHTCPPCPAPELLGGPSVFLFPPKPKDTLMISRTPEVTCVVVDVSHEDPEVKFNWYVDGVEVHNAKTKPREEQYQSTYRVVSVLTVLHQDWLNGKEYKCKVSNKALPAPIEKTISKAKGQPREPQVYTLPPSREEMTDNQVSLTCLVKGFYPSDIAVEWESNGQPENNYKTTPPVLMSDGSFFLASKLTVDKSRWQQGNVFSCSVMHEALHNHYTQKSLSLSPG
light 1: RIQMTQSPSSLSASVGDRVTITCKSSQSLLYTSSQKNYLAWYQDKPGKAPKLLIYWASTRESGVPSRFSGSGSGTDFTLTISSLQPEDFATYYCQQYYAYPWTFGQGTKVEIKRTVAAPSVFIFPPSDEQLKSGTARVVCLLNNFYPREAKVQWKVDNALQSGNSQESVTEQDSKDSTYSLISTLTLSKADYEKHKVYACEVTHQGLSSPVTKSFNRGEC
heavy 2: QVQLVQSGAEVKKPGSSVKVSCKASGYTFTTYYLHWVRYAPGQGLEWMGWIYPGNVHAQYNEKFKGRVTITADKSTSTAYMELSSLRSEDTAVYYCARSWEGFPYWGRGTTVTVSSASTKGPSVFPLAPSSKSTSGGTAALGCLVKDYFPEPVTVSWNSGALTSGVHTFPAVLQSSGLYSLSSVVTVPSSSLGTQTYICNVNHKPSNTKVDEKVEPKSCDKTHTCPPCPAPELLGGPSVFLFPPKPKDTLMISRTPEVTCVVVDVSHEDPEVKFNWYVDGVEVHNAKTKPREEQYQSTYRVVSVLTVLHQDWLNGKEYKCKVSNKALPAPIEKTISKAKGQPRRPRVYTLPPSREEMTKNQVSLVCLVKGFYPSDIAVEWESNGQPENNYKTTPPVLDSDGSFFLYSVLTVDKSRWQQGNVFSCSVMHEALHNHYTQKSLSLSPG
light 2: DIQMTQSPSSLSASVGDRVTITCKASQNVGINVAWYQRKPGDAPKSLISSASYRYSGVPSRFSGSGSGTDFTLTISSLQPEDFATYFCQQYDTYPFTFGQGTKVEIKRTVAAPSVFIFPPSDKQLKSGTASVVCLLNNFYPREAKVQWKVDNALQSGNSQESVTEQDSKDSTYSLSSTLTLSKADYEKHKVYACEVTHQGLSSPVTKSFNRGEC
notes: Human IgG1; also called MetMAb × BHA10 14.3.1.2
B2: MetMAb × Matuzumab IgG BsAb, CH1/Cκ Wild-Type (AB / H4DR variable domain designs, 7.8.60 CH3, N297Q) (bispecific antibody)
heavy 1: B1 heavy 1 with A149K, G185S
light 1: B1 light 1 with R137S, I182S
heavy 2: QVQLVQSGAEVKKPGASVKVSCKASGYTFTSHWMHWVRYAPGQGLEWIGEFNPSNGRTNYNEKFKSKATMTVDTSTNTAYMELSSLRSEDTAVYYCASRDYDYDGRYFDYWGRGTLVTVSSASTKGPSVFPLAPSSKSTSGGTAALGCLVKDYFPEPVTVSWNSGALTSGVHTFPAVLQSSGLYSLSSVVTVPSSSLGTQTYICNVNHKPSNTKVDKKVEPKSCDKTHTCPPCPAPELLGGPSVFLFPPKPKDTLMISRTPEVTCVVVDVSHEDPEVKFNWYVDGVEVHNAKTKPREEQYQSTYRVVSVLTVLHQDWLNGKEYKCKVSNKALPAPIEKTISKAKGQPRRPRVYTLPPSREEMTKNQVSLVCLVKGFYPSDIAVEWESNGQPENNYKTTPPVLDSDGSFFLYSVLTVDKSRWQQGNVFSCSVMHEALHNHYTQKSLSLSPG
light 2: DIQMTQSPSSLSASVGDRVTITCSASSSVTYMYWYQRKPGDAPKLLIYDTSNLASGVPSRFSGSGSGTDYTFTISSLQPEDIATYYCQQWSSHIFTFGQGTKVEIKRTVAAPSVFIFPPSDEQLKSGTASVVCLLNNFYPREAKVQWKVDNALQSGNSQESVTEQDSKDSTYSLSSTLTLSKADYEKHKVYACEVTHQGLSSPVTKSFNRGEC
notes: Human IgG1; also called MetMAb × Matuzumab Wild-Type
B3: MetMAb × Matuzumab IgG BsAb, CH1/Cκ design 14.3.1.1 (bispecific antibody)
heavy 1: B1 heavy 1 with G185A
light 1: B1 light 1
heavy 2: B2 heavy 2 with K217E
light 2: B2 light 2 with E122K
notes: Human IgG1; also called MetMAb × Matuzumab 14.3.1.1
B4: MetMAb × Matuzumab IgG BsAb, CH1/Cκ design 14.1.2 (bispecific antibody)
heavy 1: B1 heavy 1 with G185S, K215E
light 1: B1 light 1 with E129K, I182S
heavy 2: B2 heavy 2
light 2: B2 light 2
notes: Human IgG1; also called MetMAb × Matuzumab 14.1.2
B5: MetMAb × Matuzumab IgG BsAb, CH1/Cκ design 14.3.1.2 (bispecific antibody)
heavy 1: B1 heavy 1
light 1: B1 light 1
heavy 2: B2 heavy 2 with K217E
light 2: B2 light 2 with E122K
notes: Human IgG1; also called MetMAb × Matuzumab 14.3.1.2
B6: Pertuzumab × BHA10 IgG BsAb, CH1/Cκ Wild-Type (AB / H4DR variable domain designs, 7.8.60 CH3, N297Q) (bispecific antibody)
heavy 1: EVQLVESGGGLVQPGGSLRLSCAASGFTFTDYTMDWVRKAPGKGLEWVADVNPNSGGSIYNQEFKGRFTLSVDRSKNTLYLQMNSLRAEDTAVYYCARNLGPSFYFDYWGQGTLVTVSSASTKGPSVFPLAPSSKSTSGGTAALGCLVKDYFPEPVTVSWNSGALTSGVHTFPAVLQSSGLYSLSSVVTVPSSSLGTQTYICNVNHKPSNTKVDKKVEPKSCDKTHTCPPCPAPELLGGPSVFLFPPKPKDTLMISRTPEVTCVVVDVSHEDPEVKFNWYVDGVEVHNAKTKPREEQYQSTYRVVSVLTVLHQDWLNGKEYKCKVSNKALPAPIEKTISKAKGQPREPQVYTLPPSREEMTDNQVSLTCLVKGFYPSDIAVEWESNGQPENNYKTTPPVLMSDGSFFLASKLTVDKSRWQQGNVFSCSVMHEALHNHYTQKSLSLSPG
light 1: RIQMTQSPSSLSASVGDRVTITCKASQDVSIGVAWYQDKPGKAPKLLIYSASYRYTGVPSRFSGSGSGTDFTLTISSLQPEDFATYYCQQYYIYPYTFGQGTKVEIKRTVAAPSVFIFPPSDEQLKSGTASVVCLLNNFYPREAKVQWKVDNALQSGNSQESVTEQDSKDSTYSLSSTLTLSKADYEKHKVYACEVTHQGLSSPVTKSFNRGEC
heavy 2: B1 heavy 2 with E212K
light 2: B1 light 2 with K123E
notes: Human IgG1; also called Pertuzumab × BHA10 Wild-Type
B7: Pertuzumab × BHA10 IgG BsAb, CH1/Cκ design 14.1.2 (bispecific antibody)
heavy 1: B6 heavy 1 with K149A, K215E
light 1: B6 light 1 with E123K, S131R
heavy 2: B1 heavy 2 with E212K
light 2: B1 light 2 with K123E
notes: Human IgG1; also called Pertuzumab × BHA10 14.1.2
B8: Pertuzumab × BHA10 IgG BsAb, CH1/Cκ design 14.3.1.1 (bispecific antibody)
heavy 1: B6 heavy 1 with K149A, S185A
light 1: B6 light 1 with S131R, S176I
heavy 2: B1 heavy 2
light 2: B1 light 2
notes: Human IgG1; also called Pertuzumab × BHA10 14.3.1.1
B9: Pertuzumab × BHA10 IgG BsAb, CH1/Cκ design 14.3.1.2 (bispecific antibody)
heavy 1: B6 heavy 1 with K149A, S185G
light 1: B6 light 1 with S131R, S176I
heavy 2: B1 heavy 2
light 2: B1 light 2
notes: Human IgG1; also called Pertuzumab × BHA10 14.3.1.2

T4 sequence (P36941 28-227 limits assumed): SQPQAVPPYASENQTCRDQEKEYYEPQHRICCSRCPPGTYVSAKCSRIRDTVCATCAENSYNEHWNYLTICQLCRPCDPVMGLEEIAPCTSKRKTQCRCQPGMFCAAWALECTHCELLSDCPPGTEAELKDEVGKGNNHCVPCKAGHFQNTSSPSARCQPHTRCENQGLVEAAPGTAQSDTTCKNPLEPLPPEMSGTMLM

In the first assay the target is T1, hHER-2-Fc (human, UniProt P04626 23-652).
T1 construct: Bought (R&D systems); Coated on the plate; not shown: Fc of the bought fusion protein
Kind of assay: sandwich ELISA with mis-matched antigens. As to the method: (§1) The dual-binding activity of the same synthesized IgG BsAbs is assessed using a sandwich ELISA. […] Sandwich ELISAs are developed for detecting the four different BsAb test articles; one for detecting anti-HER-2/anti-EGFR BsAb activity, one for detecting anti-HER-2/anti-LTPR BsAb activity, one for detecting anti-cMET/anti-EGFR BsAb activity and one for detecting anti-cMET/anti-LTPR BsAb activity. For all ELISAs, clear 96-well round bottom high binding Immulon microtiter plates (Greiner bio-one, cat #650061) are coated overnight at 2-8° C. with 50 μL/well 1 μg/mL hHER-2-Fc or 1 μg/mL hHGFR(cMet)-Fc (both from R&D systems) in a 50 mM Na2CO3 pH 8.3 buffer. The plates are washed 4 times with PBST and blocked with 200 μL/well casein buffer (Pierce) for 1 hr at room temperature. The plates are then washed 4 times with PBST and the parental IgG controls or BsAb IgG test articles are added at 50 μL/well and […] and serially diluted 1:3 down the plate. The controls and test articles are incubated on the plate for 1 hr at room temperature. The plates are then washed 4 times with PBST and 50 μL/well 1 μg/mL hEGFR-Fc-biotin or hLTβR-Fc-biotin (both from R&D systems) is added for 1 hr at room temperature. The plates are then washed 4 times with PBST followed by the addition of a 50 μL/well streptavidin-AP (Jackson Immunoresearch Labs Cat. #016-050-084) diluted 1:1000 in casein buffer. The streptavidin-AP is incubated in each well for 1 hr at room temperature. The plates are then washed 4 times with PBST and 100 μL/well 1-step PNPP substrate is added (Thermo Scientific Cat. #37621). After approximately 5-15 minutes, plates are read for Absorbance (405 nm) using a SPECTRAMAX® UV plate reader (Molecular Devices). Biotin-labeling of the hEGFR-Fc and hLTβR-Fc proteins is performed using EZ-LINK™ Sulfo-NHS-LC-Biotin (Thermo Scientific Cat. #21327) according to the manufacturer's protocol.
B1: the binding result was “no binding”.

As to B2, the binding result is listed as “no binding”.

As to B3, the binding result is “no binding”.

As for B4, the binding result is “no binding”.

For the molecule B5, the binding result was “no binding”.

For a further assay, the target named is T2, hHGFR(cMet)-Fc (human, UniProt P08581 25-932).
T2 construct: Bought (R&D systems); Coated on the plate; not shown: Fc of the bought fusion protein
T2 sequence (P08581 25-932): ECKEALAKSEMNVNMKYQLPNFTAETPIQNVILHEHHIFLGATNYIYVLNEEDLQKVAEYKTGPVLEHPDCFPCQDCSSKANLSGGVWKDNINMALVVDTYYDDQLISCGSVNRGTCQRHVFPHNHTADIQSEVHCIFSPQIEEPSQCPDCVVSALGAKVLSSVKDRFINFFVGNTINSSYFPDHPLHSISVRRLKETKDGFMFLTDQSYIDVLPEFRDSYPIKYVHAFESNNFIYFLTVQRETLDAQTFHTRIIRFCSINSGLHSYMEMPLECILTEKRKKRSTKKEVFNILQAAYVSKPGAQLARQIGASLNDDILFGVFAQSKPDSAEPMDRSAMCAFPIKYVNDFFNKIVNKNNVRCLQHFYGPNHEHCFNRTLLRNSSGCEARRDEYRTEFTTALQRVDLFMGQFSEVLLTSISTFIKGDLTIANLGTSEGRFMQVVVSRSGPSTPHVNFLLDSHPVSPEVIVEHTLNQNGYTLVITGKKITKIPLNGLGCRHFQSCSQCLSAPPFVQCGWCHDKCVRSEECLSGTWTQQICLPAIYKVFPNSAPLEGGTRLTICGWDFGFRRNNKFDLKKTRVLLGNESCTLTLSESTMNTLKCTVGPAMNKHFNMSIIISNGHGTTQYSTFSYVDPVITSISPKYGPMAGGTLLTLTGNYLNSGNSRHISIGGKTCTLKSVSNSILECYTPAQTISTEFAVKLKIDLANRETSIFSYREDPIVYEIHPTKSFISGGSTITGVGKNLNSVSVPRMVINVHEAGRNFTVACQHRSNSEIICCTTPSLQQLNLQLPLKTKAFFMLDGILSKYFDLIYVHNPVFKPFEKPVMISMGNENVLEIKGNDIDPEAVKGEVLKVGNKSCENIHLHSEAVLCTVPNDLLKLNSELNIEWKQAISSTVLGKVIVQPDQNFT
Briefly: sandwich ELISA with mis-matched antigens. The protocol: as §1
Turning to B6, the binding result is listed as “no binding”.

Regarding B7, the binding result is recorded as “no binding”.

Regarding B8, the binding result is on record as “no binding”.

With B9, the binding result is “no binding”.

In the next assay the target is T3, hEGFR-Fc-biotin (human, UniProt P00533 25-645, biotin-labelled with EZ-LINK Sulfo-NHS-LC-Biotin).
T3 construct: Bought (R&D systems); Detection antigen of the sandwich; not shown: Fc of the bought fusion protein
Briefly: sandwich ELISA with mis-matched antigens. The protocol: as §1
As for B1, the binding result is given as “no binding”.

Regarding B6, the binding result is given as “no binding”.

On to B7, for which the binding result was “no binding”.

For B8, the binding result was “no binding”.

Regarding B9, the binding result is reported as “no binding”.

A further assay addresses T4, hLTβR-Fc-biotin (human, UniProt P36941 28-227, limits assumed, biotin-labelled with EZ-LINK Sulfo-NHS-LC-Biotin).
T4 construct: Bought (R&D systems); Detection antigen of the sandwich; also called LTPR (as printed once); not shown: Fc of the bought fusion protein
Briefly: sandwich ELISA with mis-matched antigens. As to the method: as §1
For the molecule B2, the binding result was “no binding”.

On to B3, for which the binding result is given as “no binding”.

As to B4, the binding result was “no binding”.

With B5, the binding result was “no binding”.
